Here are results for two proteins from PMC3315481, “Phosphorylation of the Drosophila melanogaster RNA–Binding Protein HOW by MAPK/ERK Enhances Its Dimerization and Activity” (PLoS Genetics, 2012).

This data set concerns the molecule itself. Kind of data set: co-IP; S2R+ cells co-transfected with GFP-fused and HA-tagged HOW(L) variants (or gfp with how(l)^WT-HA); lysis in 1% NP40 buffer (50 mM Tris pH 7.5, 100 mM NaCl); IP with mouse anti-GFP on protein A/G beads 1-2 h at 4°C; Western blot with anti-HOW; co-precipitated HA protein normalised to its crude level and to the precipitated GFP protein. Background: In western blotting, separated proteins are transferred to a membrane and probed.

B1: Held Out Wings, long isoform, phospho-mutant T59A T64A (HOW(L)^TTAA) (natural protein, Drosophila melanogaster, UniProt O01367 1-405, looked up)
chain: MSVCESKAVVQQQLQQHLQQQAAAAVVAVAQQQQAQAQAQAQAQAQQQQQAPQVVVPMAPQHLAPQQQQQSTQSIADYLAQLLKDRKQLAAFPNVFTHVERLLDEEIARVRASLFQINGVKKEPLTLPEPEGSVVTMNEKVYVPVREHPDFNFVGRILGPRGMTAKQLEQETGCKIMVRGKGSMRDKKKEDANRGKPNWEHLSDDLHVLITVEDTENRATVKLAQAVAEVQKLLVPQAEGEDELKKRQLMELAIINGTYRDTTAKSVAVCDEEWRRLVAASDSRLLTSTGLPGLAAQIRAPAAAPLGAPLILNPRMTVPTTAASILSAQAAPTAAFDQTGHGMIFAPYDYANYAALAGNPLLTEYADHSVGAIKQQRRLATNREHPYQRATVGVPAKPAGFIEIQ
notes: Held Out Wings (HOW), isoform HOW(L), Drosophila melanogaster, with T59 and T64 mutated to alanine; Two differently tagged copies met in the co-IP: one fused to GFP (bait, vector pTGW) and one tagged with HA (prey, vector pTWH); also called HOW^TTAA; gfp-how(l)^TTAA; source: S2R+ cells, co-transfected, in lysate
On to B1, for which the “co-immunoprecipitated HA protein, normalised, relative to HOW(L)^WT” value worked out at 0.56 ± 0.14.

B2: Held Out Wings, long isoform, dimerization mutant E106G (HOW(L)^EG) (natural protein, Drosophila melanogaster, UniProt O01367 1-405, looked up)
chain: MSVCESKAVVQQQLQQHLQQQAAAAVVAVAQQQQAQAQAQAQAQAQQQQQAPQVVVPMTPQHLTPQQQQQSTQSIADYLAQLLKDRKQLAAFPNVFTHVERLLDEGIARVRASLFQINGVKKEPLTLPEPEGSVVTMNEKVYVPVREHPDFNFVGRILGPRGMTAKQLEQETGCKIMVRGKGSMRDKKKEDANRGKPNWEHLSDDLHVLITVEDTENRATVKLAQAVAEVQKLLVPQAEGEDELKKRQLMELAIINGTYRDTTAKSVAVCDEEWRRLVAASDSRLLTSTGLPGLAAQIRAPAAAPLGAPLILNPRMTVPTTAASILSAQAAPTAAFDQTGHGMIFAPYDYANYAALAGNPLLTEYADHSVGAIKQQRRLATNREHPYQRATVGVPAKPAGFIEIQ
notes: Held Out Wings (HOW), isoform HOW(L), Drosophila melanogaster, with E106 mutated to glycine; Two differently tagged copies met in the co-IP: one fused to GFP (bait, vector pTGW) and one tagged with HA (prey, vector pTWH); also called HOW^EG; gfp-how(l)^EG; source: S2R+ cells, co-transfected, in lysate
As to B2, the “co-immunoprecipitated HA protein, normalised, relative to HOW(L)^WT” value was 0.13 ± 0.04.
